# Assay: yeast display, Sf9 membrane polyspecificity reagent, FACS + sequencing; frameworks hold sequencing errors
# In short: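 A nanobody's polyreactivity label depends on the gate it was sorted from. Yeast display cells were stained with 10% biotinylated, detergent-solubilized Sf9 membrane reagent for 1 hour at 4 °C, enriched on streptavidin microbeads and sorted by FACS. The low and high (top ~1%) gates were set on anti-HA fluorescence for expression and streptavidin fluorescence for reagent binding.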
row,Sequence,polyreactivity (PSR sort gate)
1,QVQLVESGGGLVQAGGSLRISCAASGSIFVYYGMGWYRQAPGKERELVAAISSGGSTHYADSVKGRFTISRDNAKNTVYLQMNSLKPEDTAVYYCAAERFFWLRSYPRYYYWGQGTQVTVSS,low polyreactivity
2,QVQLVESGGGLVQAGGSLRISCAASGSIYSAYVMGWYRQAPGKERELVSAITRSGGSTYYADSVKGRFTISRDNAKNTVYFQMNSLKPEDTAVYYCAVDYLLHYYSYIEDYWGQGTQVTVSS,low polyreactivity
3,QVQLVESGGGLVQAGGSLRISCAASGSIYWDNAMGWYRQAPGQESELVAAITSSGDTTYYADSVKGRFTISRDNAKNTVYLQMNSQKPEDTAVYYCAADYYTAYYVTLDYWGQGTQVTVSS,low polyreactivity
4,QVQLVESGGGLVQAGGSLRISCAASGSNFIRYAKGWYRQAPGKEMELVAAIRWSAGSTSYADSVKGRFTISRDNAKNTVYLQMNSLKPEDTAVYYCAAGPDYGWRRYDYWGQGTQVTVSS,low polyreactivity
5,QVQLVESGGGLVQAGGSLRISCAASGSNFPYYAMGWYRQAPWQERELVAAISRGGGTTYYADSVKGRFTISRDNAKNTVYLQMISLKPEDTAVYYCAARQWRISTPYDYWGQGTQVTVSS,high polyreactivity
6,QVQLVESGGGLVQAGGSLRISCAASGSNFRTYVMGWYRQAPGKERELVAAISRRGGSTYYADSVKGLFTISRDNAKKTVYLQMNSLKPEDTAVYYCAAEDEYSLEFSTLDYWGQGTQVTVSS,high polyreactivity
7,QVQLVESGGGLVQAGGSLRISCAASGSSFHDYAMGWYTQAPGKERELVAAISSSGTSTYYADSVKGRFTISRDNANNTVYLQMNILKPEDTAVYYCAVYAISFAWSGWTYEDYWGQGTQVNVSS,low polyreactivity
8,QVQLVESGGGLVQAGGSLRISCAASGSTFAYNAMGWYIQAPGKERELVAVISKGGGRTYYADSVKGRFTISRDNAKNTVYLQINSLKPEDTAVYYCAARYIPVYTREREYNYWGQGTQVTVSS,high polyreactivity
9,QVQLVESGGGLVQAGGSLRISCAASGSTFEYYAMGWYRQAPGKERELVATISIDGRTNYADSVKGRFTISRDNAKNTVYLQMNSLKPEDTAVYYCAARPYWRHRYDYWGQGTQVTVSS,low polyreactivity
10,QVQLVESGGGLVQAGGSLRISCAASGSTFFRNAMGRYRQAPGKERELVAAITWSGGSTYYADSVKGRFTISRDNAKNTVYLQMNSLKPEDTAVYYFAAGLSYWTPHYYPFDYWGQGTQVTVSS,low polyreactivity
11,QVQLVESGGGLVQAGGSLRISCAASGSTFFRYAMGWYRQAPGKERELVAAIYKSGASTYYADSVKGRFTISRDNPKNSVYLQMNSLKPEDTGVYYCNADVKNSSAREWQYGYDYWGQGTQVTVSS,low polyreactivity
12,QVQLVESGGGLVQAGGSLRISCAASGSTFGEYALGWYRQAPGKERELVAVITSDDNTYYADSVKGRFTISRDNAKNTVYLQMNSLKPEDTAVYYCATDDRRRFKYWGQGTQVTVSS,high polyreactivity
13,QVQLVESGGGLVQAGGSLRISCAASGSTFGGYVLGWYRPAPGKERELVAAISRSGASTYYADSVKGRFTISRDNAKNTVYLQMNSLKPEDTAVYYCAAYQARGLDYWGQGTQVTVSS,high polyreactivity
14,QVQLVESGGGLVQAGGSLRISCAASGSTFGRYAMGWYRQAPGKEREFVAAITQGGTNTYYADSVKGRFTISRDNAKNTVYLQMNSLKPEDTAVYYCARVRRYPLRYNYWGQGTQVTVSS,high polyreactivity
15,QVQLVESGGGLVQAGGSLRISCAASGSTFSPYAMGWYRQAPRKERELFAAISASGGGTYYADSVKGRFTISRDNAKNTVYLQMNSLKPEDTAVYYCARDYGWDISKGRYGYWGQGTQVTVSS,low polyreactivity
16,QVQLVESGGGLVQAGGSLRISCAASGSTFSRNAMVWYRQAPGKERELVATISRSGRTNYADSVKGRFTISRDNAKNTVYLQMNSLKPEDTAVYYCNAGYRRSYEYWGQCTQVTVSS,low polyreactivity
17,QVQLVESGGGLVQAGGSLRISCAASGSTFWGYAMGWYRQAPGKERELVATINQSAGSTYYADSVKGRFTISRDNAKNTVYLQMNSLKPEDTAVYYCAAEARVQFSYDYWGQGTQVTVSS,low polyreactivity
18,QVQLVESGGGLVQAGGSLRISCAASGSTFWGYDKGWYRQAPGKERELVAAITRNGGGTYYADSVKGRFTISRDNAKNTVYLQMNSLKPEDTAVYYCASTRGAYYLYGGHKMDYWGQGSQVTVSS,high polyreactivity
19,QVQLVESGGGLVQAGGSLRISCAASGSTLLRNAMGWYRQAPGKERELVAVITYSGGSTYYADSVKGRFTISRDNAKNTVYLQMNSLKPEDTAVYYCAADIWYYVRYPTDAYSKFDYCGQGTQVTVSS,low polyreactivity
20,QVQLVESGGGLVQAGGSLRISCAASGSTNEYAMGWYRQAPGKERELVAAITWSGGRTYYADSVKGRFTISRDNAKNTVYLQMNSLKPEDTAVYYCAKAYYARHGRYTYYSWGQGTQVTVSS,high polyreactivity
21,QVQLVESGGGLVQAGGSLRISCAASGSTSYNYVMGWYRQAPGKERELVAGITWSDDITYYADSVKGRFTISRDNAKNTVYLQMNSLKPEDTAVYYCAAEDRPLYWRFPDEMDYWGQGTQVTVSS,low polyreactivity
22,QVQLVESGGGLVQAGGSLRISCAASGTTFPYNGMGWYRQAPGKERELVASISWSGASTYYADSVKGRFTISRDNAKNTVYLQMNSLKPEDTAVYYCAADPGYYSWGSSQDDYWGQGTQVTVSS,low polyreactivity

row,Sequence,polyreactivity (PSR sort gate)
1,QVQLVESGGGLVQAGGSLRISCAASGVIFGTYAMRSYRQAPGKERELVAAITSGGTTIYADSVKGRFTISRDNAKNTVYLQMNSLKPEDTAVYYCAARRLYVGYGYDYWGQGTQVTVSS,high polyreactivity
2,QVQLVESGGGLVQAGGSLRISCAAYGSTFGPYAMGWYRQAPGKERELVAAITWNGGSTYYADSVKGRFTISRDNAKNTVYLQMTSLKPEDTAVYYCAAKAYGRKGTYRVNYWGQGTQVTVSS,high polyreactivity
3,QVQLVESGGGLVQAGGSLRISCADSASIFWGYAMGWYREAPGKERELVATIRNRGGSTYYADSVKGRFTISRDNAKYTVYLQMNSLKPEDTAVYYCAAVSYRQYYGWGNYWGQVTQVTVSS,low polyreactivity
4,QVQLVESGGGLVQAGGSLRISCAPSGIIFTDYAMGWYRQAPGKERELVAAISSGGGSTYYADSVKGRFTISRDNAKNTVYLQMNSLKPEDTAVYYCAAEGYLISGAGDYLYDYYWGQGTQVTVSS,high polyreactivity
5,QVQLVESGGGLVQAGGSLRISCAPSGSTSVQYAMGWYRQAPGKERELVAAIDRSGGSTSYADSVKGRFTISRDNAKNTVYLQMNSLKPEDTAVYYCNADPVRSTYSYDYWGQGTQVTVSS,low polyreactivity
6,QVQLVESGGGLVQAGGSLRISCASSVRTFAWNAMGWYRQAPGKERELVAVITSGVSTNYADSVKGRFTISRDNANNTVYLQMNSLKPEDTAVYYCAARSWVYSVIGDNWGLGTQVTVSS,low polyreactivity
7,QVQLVESGGGLVQAGGSLRISCDASGSTFAWYAMGWYRQAPGKERELVAAISRTGRTYYADSVKGRFTISRDNAKNTVYLQMNRLTPEDTAVYYCAGRIERFYRDQRYDYWGQGTQVTVSS,high polyreactivity
8,QVQLVESGGGLVQAGGSLRISCEAYGSIFGSYAMGWYRQEPGKERELVAGITYRGSSTYYADSVKGRYTISRDNAKNTVYLQMNSLKPEDTAVYYCAADPVFDEYDYWGQGTQVTVSW,low polyreactivity
9,QVQLVESGGGLVQAGGSLRISCSASGGIFDPYAMGWYRQAPGKERELVAAITNSGGSTYYADSVKGRFTISRDNAKNTVYLQMNSLKPEDSAVYYCAAEGLYVGYDYWGHGTQVTVSS,low polyreactivity
10,QVQLVESGGGLVQAGGSLRITCAASGSTFYRNAMGWYRQAPGKERELVAALSRGGSTYYADSVKGRFTISRDNAKNTVYLQMNSLKPEDSAVYYCAARYYSYQYGRHTRYQSVYWGQGTQVTVSS,high polyreactivity
11,QVQLVESGGGLVQAGGSLRKSCAASGSTFVDYDMGWYRQAPGKERELVAGITTGGSTNYADSVKGRFPISRDNAKNTVYLQMNSLKPEDTAVYYCNADSYPILVPDYLYYWYEYWGQGTQVTVSS,low polyreactivity
12,QVQLVESGGGLVQAGGSLRLAVLPPDLPSTLNDMGWYRQAPGKERELVAAITRGGSTNYADSVKGRFTISRDNAKNTVYLQMNSLKPEDTAVYDCAAPYAGWRDGGDYWGQGTQVTVSS,low polyreactivity
13,QVQLVESGGGLVQAGGSLRLCCAASGFICGKYALGWYRQAAGNEWVLVAAITSDGRTYYADSVKGRFTISRDNPKNTVYVQMNSLKPEDTAVYYCAVDYYWYSYSGYDDYWGQGTQVTVSS,high polyreactivity
14,QVQLVESGGGLVQAGGSLRLCCAASGFTFSWYAMGWYRQAPGKERELVAAISSSGGSTYYADSVKGRFTISRDNAKNTVYLQMYSLKPEDTAVYYCNAYRSASVVVGYDYWGQGTQVTVSS,high polyreactivity
15,QVQLVESGGGLVQAGGSLRLCCAASGLTFAYYDMGWYRQAPGKERELVAAITSGGTTNYADSVKGRFTISRDNAKNTVYLQMNSLKPEDNAVYYCATDSWYGSWKYDYWGQGTQVTLSS,low polyreactivity
16,QVQLVESGGGLVQAGGSLRLCCAASGLTFYPNAMGWYRQAPGKEREFVASISISGRTYYADSVKGRFTISRDNAKNTVYLQMNSLKPEDTAVYYCAARYVRSGLYRKYDYWGQGTQVTVSS,high polyreactivity
17,QVQLVESGGGLVQAGGSLRLCCAASGRTFPYYAMGWYRQAPGKERELVAAISSSGGRTYYADSVKGRFTISRDNAKNTVYLQMNSLKPEDTAVYYCNVDAWYPYQGFLVGYYYWGQGTQVTVSS,low polyreactivity
18,QVQLVESGGGLVQAGGSLRLCCAASGSTFADNAMGWYRQAPGTDGEFVAGISTNGGSTYYADSVKGRFRISRDNAKTTVDCQLNSLKPEDTAVYDSAAVNYYDQYGDYYWGQGTQVTVSS,low polyreactivity
19,QVQLVESGGGLVQAGGSLRLCCAAYGFTFRINAMGWYRQAHGKERELVAYMSGRGGSTYYADSVQGRFTISRDNAMNTVYLQMNSLKPEDTAVYYCAATGSSSMSSYYLGQGTQVTVSS,high polyreactivity
20,QVQLVESGGGLVQAGGSLRLGCAASGSTLYSYAMGWYRQAPGKERELVASISSGASTYYADSVKGRFTISRDNAKNTVYLQMNSLKPEDTAVYYCNADAGSYHTGWVTPWGSDEYDYWGQGTQVTVSS,low polyreactivity
21,QVQLVESGGGLVQAGGSLRLICAAAGRTFWYNAMGWYRQAPGKERELVAVISSGAITYYADSVKGRFTISRDNAKNTVYLQMNSLKPEDTAVYYCAARSYLSLIDYWGQGTQVTVSS,high polyreactivity

# Source: the nanobody polyreactivity screen of Harvey et al. (2022)
